T1: MBP-GFP-ORC1 wild type, full length (human, UniProt Q13415 1-861)
T1 sequence (looked up): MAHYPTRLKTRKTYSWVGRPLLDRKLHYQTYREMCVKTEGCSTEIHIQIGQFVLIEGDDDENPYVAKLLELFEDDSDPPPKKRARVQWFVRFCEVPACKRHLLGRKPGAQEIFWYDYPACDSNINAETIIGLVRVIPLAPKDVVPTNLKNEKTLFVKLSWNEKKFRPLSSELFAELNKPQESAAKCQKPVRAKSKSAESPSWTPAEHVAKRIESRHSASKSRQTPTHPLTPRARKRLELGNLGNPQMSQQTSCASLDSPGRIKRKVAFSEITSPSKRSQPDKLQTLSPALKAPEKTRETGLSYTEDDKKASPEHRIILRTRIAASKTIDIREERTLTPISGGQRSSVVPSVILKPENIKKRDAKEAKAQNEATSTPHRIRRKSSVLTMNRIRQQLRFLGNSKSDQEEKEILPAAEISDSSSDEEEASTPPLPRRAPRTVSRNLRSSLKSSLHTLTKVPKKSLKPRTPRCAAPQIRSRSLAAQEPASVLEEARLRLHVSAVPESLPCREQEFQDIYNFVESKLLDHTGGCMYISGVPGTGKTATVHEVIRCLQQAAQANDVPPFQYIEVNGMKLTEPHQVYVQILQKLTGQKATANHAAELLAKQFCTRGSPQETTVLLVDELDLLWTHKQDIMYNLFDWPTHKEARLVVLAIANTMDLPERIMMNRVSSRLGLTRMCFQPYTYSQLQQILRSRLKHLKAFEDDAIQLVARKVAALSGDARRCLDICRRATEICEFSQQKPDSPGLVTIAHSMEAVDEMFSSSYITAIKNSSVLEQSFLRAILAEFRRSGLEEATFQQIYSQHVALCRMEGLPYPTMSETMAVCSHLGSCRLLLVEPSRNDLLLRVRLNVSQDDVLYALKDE

B1: MBP-ORC1 wild type, full length (natural protein, human, UniProt Q13415 1-861, looked up)
chain: MAHYPTRLKTRKTYSWVGRPLLDRKLHYQTYREMCVKTEGCSTEIHIQIGQFVLIEGDDDENPYVAKLLELFEDDSDPPPKKRARVQWFVRFCEVPACKRHLLGRKPGAQEIFWYDYPACDSNINAETIIGLVRVIPLAPKDVVPTNLKNEKTLFVKLSWNEKKFRPLSSELFAELNKPQESAAKCQKPVRAKSKSAESPSWTPAEHVAKRIESRHSASKSRQTPTHPLTPRARKRLELGNLGNPQMSQQTSCASLDSPGRIKRKVAFSEITSPSKRSQPDKLQTLSPALKAPEKTRETGLSYTEDDKKASPEHRIILRTRIAASKTIDIREERTLTPISGGQRSSVVPSVILKPENIKKRDAKEAKAQNEATSTPHRIRRKSSVLTMNRIRQQLRFLGNSKSDQEEKEILPAAEISDSSSDEEEASTPPLPRRAPRTVSRNLRSSLKSSLHTLTKVPKKSLKPRTPRCAAPQIRSRSLAAQEPASVLEEARLRLHVSAVPESLPCREQEFQDIYNFVESKLLDHTGGCMYISGVPGTGKTATVHEVIRCLQQAAQANDVPPFQYIEVNGMKLTEPHQVYVQILQKLTGQKATANHAAELLAKQFCTRGSPQETTVLLVDELDLLWTHKQDIMYNLFDWPTHKEARLVVLAIANTMDLPERIMMNRVSSRLGLTRMCFQPYTYSQLQQILRSRLKHLKAFEDDAIQLVARKVAALSGDARRCLDICRRATEICEFSQQKPDSPGLVTIAHSMEAVDEMFSSSYITAIKNSSVLEQSFLRAILAEFRRSGLEEATFQQIYSQHVALCRMEGLPYPTMSETMAVCSHLGSCRLLLVEPSRNDLLLRVRLNVSQDDVLYALKDE

The binders below were run against B1 (assay: pull-down).

binding result	Binder
binds	GST-CDC6 1–110 (domain or fragment, human, UniProt Q99741 1-110, looked up) MPQTRSQAQATISFPKRKLSRALNKAKNSSDAKLEPTNVQTVTCSPRVKALPLSPRKRLGDDNLCNTPHLPPCSPPKQGKKENGPPHSHTLKGRRLVFDNQLTIKSPSKR
binds	GST-CDC6 Δ51–70 (natural protein, human, UniProt Q99741 1-560, looked up) MPQTRSQAQATISFPKRKLSRALNKAKNSSDAKLEPTNVQTVTCSPRVKAPPCSPPKQGKKENGPPHSHTLKGRRLVFDNQLTIKSPSKRELAKVHQNKILSSVRKSQEITTNSEQRCPLKKESACVRLFKQEGTCYQQAKLVLNTAVPDRLPAREREMDVIRNFLREHICGKKAGSLYLSGAPGTGKTACLSRILQDLKKELKGFKTIMLNCMSLRTAQAVFPAIAQEICQEEVSRPAGKDMMRKLEKHMTAEKGPMIVLVLDEMDQLDSKGQDVLYTLFEWPWLSNSHLVLIGIANTLDLTDRILPRLQAREKCKPQLLNFPPYTRNQIVTILQDRLNQVSRDQVLDNAAVQFCARKVSAVSGDVRKALDVCRRAIEIVESDVKSQTILKPLSECKSPSEPLIPKRVGLIHISQVISEVDGNRMTLSQEGAQDSFPLQQKILVCSLMLLIRQLKIKEVTLGKLYEAYSKVCRKQQVAAVDQSECLSLSGLLEARGILGLKRNKETRLTKVFFKIEEKEIEHALKDKALIGNILATGLP
binds	GST-CDC6 Δ11–20 (natural protein, human, UniProt Q99741 1-560, looked up) MPQTRSQAQARALNKAKNSSDAKLEPTNVQTVTCSPRVKALPLSPRKRLGDDNLCNTPHLPPCSPPKQGKKENGPPHSHTLKGRRLVFDNQLTIKSPSKRELAKVHQNKILSSVRKSQEITTNSEQRCPLKKESACVRLFKQEGTCYQQAKLVLNTAVPDRLPAREREMDVIRNFLREHICGKKAGSLYLSGAPGTGKTACLSRILQDLKKELKGFKTIMLNCMSLRTAQAVFPAIAQEICQEEVSRPAGKDMMRKLEKHMTAEKGPMIVLVLDEMDQLDSKGQDVLYTLFEWPWLSNSHLVLIGIANTLDLTDRILPRLQAREKCKPQLLNFPPYTRNQIVTILQDRLNQVSRDQVLDNAAVQFCARKVSAVSGDVRKALDVCRRAIEIVESDVKSQTILKPLSECKSPSEPLIPKRVGLIHISQVISEVDGNRMTLSQEGAQDSFPLQQKILVCSLMLLIRQLKIKEVTLGKLYEAYSKVCRKQQVAAVDQSECLSLSGLLEARGILGLKRNKETRLTKVFFKIEEKEIEHALKDKALIGNILATGLP
binds	GST-CDC6 Δ21–30 (natural protein, human, UniProt Q99741 1-560, looked up) MPQTRSQAQATISFPKRKLSDAKLEPTNVQTVTCSPRVKALPLSPRKRLGDDNLCNTPHLPPCSPPKQGKKENGPPHSHTLKGRRLVFDNQLTIKSPSKRELAKVHQNKILSSVRKSQEITTNSEQRCPLKKESACVRLFKQEGTCYQQAKLVLNTAVPDRLPAREREMDVIRNFLREHICGKKAGSLYLSGAPGTGKTACLSRILQDLKKELKGFKTIMLNCMSLRTAQAVFPAIAQEICQEEVSRPAGKDMMRKLEKHMTAEKGPMIVLVLDEMDQLDSKGQDVLYTLFEWPWLSNSHLVLIGIANTLDLTDRILPRLQAREKCKPQLLNFPPYTRNQIVTILQDRLNQVSRDQVLDNAAVQFCARKVSAVSGDVRKALDVCRRAIEIVESDVKSQTILKPLSECKSPSEPLIPKRVGLIHISQVISEVDGNRMTLSQEGAQDSFPLQQKILVCSLMLLIRQLKIKEVTLGKLYEAYSKVCRKQQVAAVDQSECLSLSGLLEARGILGLKRNKETRLTKVFFKIEEKEIEHALKDKALIGNILATGLP
binds	GST-CDC6 Δ71–90 (natural protein, human, UniProt Q99741 1-560, looked up) MPQTRSQAQATISFPKRKLSRALNKAKNSSDAKLEPTNVQTVTCSPRVKALPLSPRKRLGDDNLCNTPHLLKGRRLVFDNQLTIKSPSKRELAKVHQNKILSSVRKSQEITTNSEQRCPLKKESACVRLFKQEGTCYQQAKLVLNTAVPDRLPAREREMDVIRNFLREHICGKKAGSLYLSGAPGTGKTACLSRILQDLKKELKGFKTIMLNCMSLRTAQAVFPAIAQEICQEEVSRPAGKDMMRKLEKHMTAEKGPMIVLVLDEMDQLDSKGQDVLYTLFEWPWLSNSHLVLIGIANTLDLTDRILPRLQAREKCKPQLLNFPPYTRNQIVTILQDRLNQVSRDQVLDNAAVQFCARKVSAVSGDVRKALDVCRRAIEIVESDVKSQTILKPLSECKSPSEPLIPKRVGLIHISQVISEVDGNRMTLSQEGAQDSFPLQQKILVCSLMLLIRQLKIKEVTLGKLYEAYSKVCRKQQVAAVDQSECLSLSGLLEARGILGLKRNKETRLTKVFFKIEEKEIEHALKDKALIGNILATGLP
binds	GST-CDC6 triple mutant (K92A, R94A and R95A) (natural protein, human, UniProt Q99741 1-560, looked up) MPQTRSQAQATISFPKRKLSRALNKAKNSSDAKLEPTNVQTVTCSPRVKALPLSPRKRLGDDNLCNTPHLPPCSPPKQGKKENGPPHSHTLAGAALVFDNQLTIKSPSKRELAKVHQNKILSSVRKSQEITTNSEQRCPLKKESACVRLFKQEGTCYQQAKLVLNTAVPDRLPAREREMDVIRNFLREHICGKKAGSLYLSGAPGTGKTACLSRILQDLKKELKGFKTIMLNCMSLRTAQAVFPAIAQEICQEEVSRPAGKDMMRKLEKHMTAEKGPMIVLVLDEMDQLDSKGQDVLYTLFEWPWLSNSHLVLIGIANTLDLTDRILPRLQAREKCKPQLLNFPPYTRNQIVTILQDRLNQVSRDQVLDNAAVQFCARKVSAVSGDVRKALDVCRRAIEIVESDVKSQTILKPLSECKSPSEPLIPKRVGLIHISQVISEVDGNRMTLSQEGAQDSFPLQQKILVCSLMLLIRQLKIKEVTLGKLYEAYSKVCRKQQVAAVDQSECLSLSGLLEARGILGLKRNKETRLTKVFFKIEEKEIEHALKDKALIGNILATGLP

These binders were tested against T1, MBP-GFP-ORC1 wild type, full length (assay: pull-down).

binding result	Binder
binds	B1
binds	MBP-ORC1 R105Q, R720Q (natural protein, human, UniProt Q13415 1-861, looked up) MAHYPTRLKTRKTYSWVGRPLLDRKLHYQTYREMCVKTEGCSTEIHIQIGQFVLIEGDDDENPYVAKLLELFEDDSDPPPKKRARVQWFVRFCEVPACKRHLLGQKPGAQEIFWYDYPACDSNINAETIIGLVRVIPLAPKDVVPTNLKNEKTLFVKLSWNEKKFRPLSSELFAELNKPQESAAKCQKPVRAKSKSAESPSWTPAEHVAKRIESRHSASKSRQTPTHPLTPRARKRLELGNLGNPQMSQQTSCASLDSPGRIKRKVAFSEITSPSKRSQPDKLQTLSPALKAPEKTRETGLSYTEDDKKASPEHRIILRTRIAASKTIDIREERTLTPISGGQRSSVVPSVILKPENIKKRDAKEAKAQNEATSTPHRIRRKSSVLTMNRIRQQLRFLGNSKSDQEEKEILPAAEISDSSSDEEEASTPPLPRRAPRTVSRNLRSSLKSSLHTLTKVPKKSLKPRTPRCAAPQIRSRSLAAQEPASVLEEARLRLHVSAVPESLPCREQEFQDIYNFVESKLLDHTGGCMYISGVPGTGKTATVHEVIRCLQQAAQANDVPPFQYIEVNGMKLTEPHQVYVQILQKLTGQKATANHAAELLAKQFCTRGSPQETTVLLVDELDLLWTHKQDIMYNLFDWPTHKEARLVVLAIANTMDLPERIMMNRVSSRLGLTRMCFQPYTYSQLQQILRSRLKHLKAFEDDAIQLVARKVAALSGDAQRCLDICRRATEICEFSQQKPDSPGLVTIAHSMEAVDEMFSSSYITAIKNSSVLEQSFLRAILAEFRRSGLEEATFQQIYSQHVALCRMEGLPYPTMSETMAVCSHLGSCRLLLVEPSRNDLLLRVRLNVSQDDVLYALKDE

Source: PMC8106667 (Molecular cell, 2021)
